Reference: PMC2857972 (The Biochemical journal, 2008)

Target: the molecule itself
Experiment: crystal structure

B1: Bacillus megaterium SirC (precorrin-2 dehydrogenase), His6-tagged (enzyme)
chain: MYTVMLDLKGRSVLVVGGGTIATRRIKGFLQEGAAITVVAPTVSAEINEWEAKGQLRVKRKKVGEEDLLNVFFIVVATNDQAVNKFVKQHIKNDQLVNMASSFSDGNIQIPAQFSRGRLSLAISTDGASPLLTKRIKEDLSSNYDESYTQYTQFLYECRVLIHRLNVSKSRKHELLTEIIDDQYRLSLVKQREFLQQIEKYK
- stoichiometry N: 2
